The results in this text go back to article PMC2629542 (The Journal of biological chemistry, 2006).

This experiment has as its target Dr hemagglutinin (DraE) adhesin, Dr fimbriae (E. coli). As to the kind of experiment: SPR.

B1: N-domain of CEACAM6 (domain or fragment)
chain: KLTIESTPFNVAEGKEVLLLAHNLPQNRIGYSWYKGERVDGNSLIVGYVIGTQQATPGPAYSGRETIYPNASLLIQNVTQNDTGFYTLQVIKSDLVNEEATGQFHVYPEL
Turning to B1, the Kd – broadly, a measure of binding affinity in units of concentration – is 30.1 µM.
